Reference: patent publication US20230212293A1 (published 2023)

Experiments:
[1] = biological target: T1, PD-1 on PD-1 reporter Jurkat cells (PATHHUNTER Checkpoint Signaling Assay) (UniProt Q15116 25-288); assay: cell-based or functional assay
[2] = biological target: T1, PD-1 on PD-1 reporter Jurkat cells …; assay: cell-based or functional assay; remark: listed apart in the source
[3] = biological target: T1, PD-1 on PD-1 reporter Jurkat cells …; assay: cell-based or functional assay; remark: listed apart in the source
[4] = biological target: T2, Mouse PD-1 overexpressed on HEK293 cells (mouse, UniProt Q02242 25-288); assay: flow cytometry on HEK293 cells overexpressing mouse PD-1
T2 construct: whole, on cells
T2 sequence (looked up): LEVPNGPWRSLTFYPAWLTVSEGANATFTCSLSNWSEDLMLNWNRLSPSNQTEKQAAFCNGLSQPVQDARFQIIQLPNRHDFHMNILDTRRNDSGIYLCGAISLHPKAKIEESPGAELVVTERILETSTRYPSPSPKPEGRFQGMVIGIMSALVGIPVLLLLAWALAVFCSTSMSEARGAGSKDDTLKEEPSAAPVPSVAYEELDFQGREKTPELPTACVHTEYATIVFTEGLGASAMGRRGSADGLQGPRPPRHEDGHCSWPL
Description: (§1) HEK293 cells were modified to overexpress human or mouse PD-1. Cells were expanded in puromycin-containing media to maintain selection, and aliquoted to 96 well V-bottom plates for antibody staining and flow cytometric analysis. Anti-PD-1 antibodies were added to cells in BD stain buffer with fetal bovine serum (BD Biosciences, cat. #554656) and incubated on ice for 20 minutes. Cells were then washed, and R-phycoerythrin (PE)-labeled anti-human IgG or anti-human IgM secondary antibodies were then added and incubated for an additional 20 minutes. Data were collected on a Beckman Coulter CYTOFLEX® cytometer and analyzed in FLOWJO™.

[5] = biological target: T3, Recombinant mouse PD-1 extracellular domain (with an immunoglobulin Fc region or a His tag) (mouse, UniProt Q02242 25-169); assay: ELISA, plate-coated recombinant PD-1 extracellular domain
T3 construct: extracellular domain; Coated on ELISA plates; not shown: either an immunoglobulin Fc region or a His tag
T3 sequence (looked up): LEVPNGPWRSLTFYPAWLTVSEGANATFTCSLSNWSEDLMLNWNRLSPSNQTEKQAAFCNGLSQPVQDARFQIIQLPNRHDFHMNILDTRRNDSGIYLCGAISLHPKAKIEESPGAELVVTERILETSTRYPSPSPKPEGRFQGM
Description: (§2) An enzyme-linked immunosorbent assay (ELISA) was performed to assess the binding of anti-PD-1 antibodies to human, cynomolgus monkey, or mouse PD-1. Recombinant proteins containing the extracellular domain of PD-1 together with either an immunoglobulin Fc region or a His tag were used to coat wells of standard 96 well ELISA plates by overnight incubation at 4° C. Unbound recombinant protein was removed, Pierce SUPERBLOCK™ T20 was added, and plates were incubated for 10 minutes at room temperature with shaking. Plates were washed with phosphate buffered saline-TWEEN-20 (PBST), and anti-PD-1 antibodies were added in phosphate buffered saline (PBS) with 1% bovine serum albumin (BSA) and incubated for one hour at room temperature with shaking. Plates were then washed in PBST and incubated with horse radish peroxidase (HRP)-conjugated secondary antibodies in F(ab′)2 directed to either human IgG or human IgM. After one hour, plates were washed again with PBST, signal was developed with SUPERSIGNAL™ ELISA Pico substrate, and an ENVISION® luminometer (PerkinElmer) was used to record signal. Data were analyzed with […] PRISM®.

[6] = biological target: T4, Human PD-1 overexpressed on HEK293 cells (human, UniProt Q15116 25-288); assay: flow cytometry on HEK293 cells overexpressing human PD-1, PE anti-human IgM detection
T4 construct: whole, on cells
Description: as §1

[7] = biological target: T5, Recombinant human PD-1 extracellular domain (with an immunoglobulin Fc region or a His tag) (human, UniProt Q15116 25-170); assay: ELISA, plate-coated recombinant PD-1 extracellular domain, HRP anti-human IgM detection
T5 construct: extracellular domain; Coated on ELISA plates; not shown: either an immunoglobulin Fc region or a His tag
Description: as §2

T1 sequence (Q15116 25-288): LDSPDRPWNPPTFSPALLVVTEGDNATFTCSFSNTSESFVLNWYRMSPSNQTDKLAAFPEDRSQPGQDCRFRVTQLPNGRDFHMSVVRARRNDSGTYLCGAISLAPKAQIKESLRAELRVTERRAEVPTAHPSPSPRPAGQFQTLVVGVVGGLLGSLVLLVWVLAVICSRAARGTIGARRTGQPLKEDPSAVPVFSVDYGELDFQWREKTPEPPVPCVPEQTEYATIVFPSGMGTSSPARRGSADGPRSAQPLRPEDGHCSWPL
T4 sequence (Q15116 25-288): as above
T5 sequence (Q15116 25-170): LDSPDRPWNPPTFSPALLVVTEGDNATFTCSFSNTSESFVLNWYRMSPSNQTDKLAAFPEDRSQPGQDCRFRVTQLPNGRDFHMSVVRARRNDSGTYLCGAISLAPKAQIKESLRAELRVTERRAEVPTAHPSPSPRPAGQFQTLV

B1: Anti-PD-1 IgM #1 (antibody)
VH: EVQLQESGPGLVKPSQTLSLTCTVTGYSITSDYAWNWIRQPPGKKLEWMGYINYSGSTSYNPSLKSRVTISRDTSKNQFSLKLSSVTAADTAVYYCARWIGSSAWYFDVWGQGTLVTVS
VL: DVLMTQTPLSLSVTPGQPASISCRSGQNIVHSNGNTYLEWYLQKPGQSPKLLIYKVSNRFFGVPDRISGSGSGTDFTLKISRVEAEDVGVYFCFQGSHVPFTFGQGTKLEIK
chain: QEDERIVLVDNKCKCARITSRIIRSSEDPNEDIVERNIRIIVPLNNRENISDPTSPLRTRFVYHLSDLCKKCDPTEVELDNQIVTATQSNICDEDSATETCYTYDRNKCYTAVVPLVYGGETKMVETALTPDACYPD
notes: also called Antibody #1 (IgM format); pentameric IgM #1
For B1, the “PD-1 Signaling EC50 (PATHHUNTER Checkpoint Signaling Assay, reporter Jurkat cells), IgM” value [1] was 0.014 nM, the “PD-1 Signaling EC50 (second incubation at 4 C), IgM” value [2] was 0.031 nM and the “PD-1 Signaling EC50 (method of Example 8), IgM” value [3] was 0.057 nM. The binding result [4] was “no binding”, the binding result [5] was “no binding” and the EC50 [6] was 0.2 nM. It also gave an EC50 [7] of 0.087 nM.
